Experimental data reported in PMC10491678.

Target: N-terminus His-tag cleaved rBPSL1038 (rBPSL1038-post-cleavage) (Burkholderia pseudomallei) (UniProt Q63W52)
Assay: SEC

Substance “N-terminus His-tag cleaved rBPSL1038 (rBPSL1038-post-cleavage) (from UniProt Q63W52 1-88) (natural protein)” has a stoichiometry N of 2.
